Numbering of substitutions follows the chain as printed. Blank lines part the entries; values can stand above or below the molecule they belong to.
Legend:
[1] = tested on: complement pathways; assay: Complement inhibition assays, comparison with parental Clone IV; type: biochemical, human; settings: in words
Description: To identify antibodies that block all 3 complement pathways, antibodies are screened using an enzyme immunoassay for the qualitative determination of functional classical, lectin and alternative complement pathways in human serum using the WEISLAB® Complement system Screen (Svar Life Science AB, Malmö, Sweden).

[2] = target: human C3 (Homo sapiens, UniProt P01024); assay: SPR (Biacore T100) binding to human C3; settings: for Binding affinity to C3 and C3b compared to parental molecule Clone IV: in words
Chain of human C3 (P01024 23-1663): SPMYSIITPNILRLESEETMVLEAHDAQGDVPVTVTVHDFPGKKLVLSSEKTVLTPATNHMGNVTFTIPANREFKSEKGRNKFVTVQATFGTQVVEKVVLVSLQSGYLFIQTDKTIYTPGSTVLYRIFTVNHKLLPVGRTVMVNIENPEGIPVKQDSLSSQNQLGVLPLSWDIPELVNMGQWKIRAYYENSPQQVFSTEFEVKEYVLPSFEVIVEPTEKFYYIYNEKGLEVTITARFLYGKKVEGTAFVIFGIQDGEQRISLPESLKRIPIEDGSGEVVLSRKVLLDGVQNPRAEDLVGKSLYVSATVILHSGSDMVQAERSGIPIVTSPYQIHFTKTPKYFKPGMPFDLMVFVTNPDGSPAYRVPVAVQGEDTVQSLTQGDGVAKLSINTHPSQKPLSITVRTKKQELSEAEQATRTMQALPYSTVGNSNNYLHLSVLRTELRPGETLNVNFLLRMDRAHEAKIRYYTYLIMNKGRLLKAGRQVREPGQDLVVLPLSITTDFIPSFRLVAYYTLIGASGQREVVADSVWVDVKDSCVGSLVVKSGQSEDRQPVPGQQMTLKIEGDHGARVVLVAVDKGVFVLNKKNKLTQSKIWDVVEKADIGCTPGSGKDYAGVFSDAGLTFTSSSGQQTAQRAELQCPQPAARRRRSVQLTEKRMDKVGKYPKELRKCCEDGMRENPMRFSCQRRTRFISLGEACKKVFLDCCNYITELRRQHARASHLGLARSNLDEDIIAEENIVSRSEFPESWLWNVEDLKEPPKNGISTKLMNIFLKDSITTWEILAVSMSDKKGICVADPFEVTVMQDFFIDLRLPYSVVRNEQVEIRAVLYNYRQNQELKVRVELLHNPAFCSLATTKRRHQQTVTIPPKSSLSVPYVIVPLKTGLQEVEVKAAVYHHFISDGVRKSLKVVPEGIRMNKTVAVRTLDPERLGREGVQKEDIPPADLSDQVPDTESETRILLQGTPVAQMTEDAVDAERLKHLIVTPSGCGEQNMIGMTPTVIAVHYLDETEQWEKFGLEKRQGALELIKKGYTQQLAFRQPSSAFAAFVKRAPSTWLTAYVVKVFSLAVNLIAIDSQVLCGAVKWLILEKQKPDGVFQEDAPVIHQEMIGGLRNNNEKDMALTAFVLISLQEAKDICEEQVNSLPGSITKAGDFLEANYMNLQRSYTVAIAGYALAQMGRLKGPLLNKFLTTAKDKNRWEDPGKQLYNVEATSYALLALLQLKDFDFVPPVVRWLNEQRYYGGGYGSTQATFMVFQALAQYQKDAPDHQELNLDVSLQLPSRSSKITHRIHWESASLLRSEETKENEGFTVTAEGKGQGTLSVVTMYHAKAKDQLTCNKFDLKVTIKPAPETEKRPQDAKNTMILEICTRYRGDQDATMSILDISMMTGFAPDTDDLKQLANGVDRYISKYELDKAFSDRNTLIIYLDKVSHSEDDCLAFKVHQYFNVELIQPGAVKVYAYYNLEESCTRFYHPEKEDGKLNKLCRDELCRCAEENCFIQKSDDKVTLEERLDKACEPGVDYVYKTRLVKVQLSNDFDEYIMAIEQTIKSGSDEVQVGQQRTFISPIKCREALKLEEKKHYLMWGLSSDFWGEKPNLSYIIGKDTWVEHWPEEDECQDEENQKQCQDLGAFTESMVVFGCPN
Description: (§1) The kinetic parameters of the candidates are determined using a surface plasmon resonance (SPR) and Biacore T100 device. C3 and different variants thereof (Table 19) are immobilized as a ligand on a HC30M SPR sensor chip (XanTec bionanalytics, Germany) using EDC/[…] linking chemistry. Five increasing concentrations of each molecule (analyte) are consecutively injected using the single cycle kinetics (SCK) mode to determine the kinetic parameters. Regeneration between the candidates is done with 10 mM glycine*HCl, 2 M NaCl, pH 3.5. The data is fitted to a 1:1 Langmuir binding model and the kinetic parameters of on-rate (ka), off-rate (kd), and affinity […] were determined.

[3] = Concentration-dependent monomeric stability study at 37° C.; type: physicochemical; settings: for Monomeric purity/content loss after two weeks incubation at 37° C.: >100 mg/mL protein concentration; for Monomeric content after 2 weeks at 37° C. / Monomeric content at start: Clone XI 152 mg/mL, Clone X 100 mg/mL
Description: The stability of Clone VI's heavy chain framework was explored by introducing framework substitutions, thereby creating inter alia Clone X (SEQ ID NO: 38). Clone X and its disulfide bond stabilized variant Clone XI (SEQ ID NO: 39) were compared in a stability study at 37° C. and >100 mg/mL protein concentration.

[4] = target: cyno C3; assay: SPR (Biacore T100) binding to cyno C3; parameters: species or system cynomolgus (Macaca fascicularis)
Description: as §1

[5] = target: T1, human C3 R102G (Homo sapiens, UniProt P01024, R102G); assay: SPR (Biacore T100) binding to C3 SNP2 R102G
T1 construct: 6×His (N); made in house; host or cells: CHO (ExpiFectamine CHO Expression Kit)
T1 sequence (P01024 23-1663 R102G): as the sequence (P01024 23-1663) above, with R80G counted along it
Description: as §1
Single nucleotide polymorphism (SNP) in C3 has been observed across the population and certain SNPs were identified in genome-wide association studies (GWAS) to correlate with an increased risk to develop AMD. Common SNP variants include P314L, which occurs in approximately 23.3% of population, and R102G, which has been reported to occur in approximately 26-29% of population. Very rare variants, which occur in less that 2.5% of the population include K155Q, R735W, S1619W, K65Q and R161W.
The inventors therefore measured the binding affinity of the scFv of the invention to the most commonly occurring C3 forms, i.e., R102G and P314L. Wild-type human C3, human C3 P314L and human C3 R102G are expressed in the CHO cell line using the ExpiFectamine CHO Expression Kit (Thermo Fisher Scientific). Proteins are expressed with N-terminal 6×His tag and purified using a HisTrap Excel HP column (GE Healthcare), followed by a size-exclusion chromatography step (SUPERDEX®20010/300GL; GE Healthcare).

[6] = target: T2, human C3b (Homo sapiens, UniProt P01024); assay: SPR (Biacore T100) binding to human C3b
T2 construct: C3b is derived from native C3 and is the larger of two elements formed by the cleavage of C3
T2 sequence (P01024 23-667 limits assumed): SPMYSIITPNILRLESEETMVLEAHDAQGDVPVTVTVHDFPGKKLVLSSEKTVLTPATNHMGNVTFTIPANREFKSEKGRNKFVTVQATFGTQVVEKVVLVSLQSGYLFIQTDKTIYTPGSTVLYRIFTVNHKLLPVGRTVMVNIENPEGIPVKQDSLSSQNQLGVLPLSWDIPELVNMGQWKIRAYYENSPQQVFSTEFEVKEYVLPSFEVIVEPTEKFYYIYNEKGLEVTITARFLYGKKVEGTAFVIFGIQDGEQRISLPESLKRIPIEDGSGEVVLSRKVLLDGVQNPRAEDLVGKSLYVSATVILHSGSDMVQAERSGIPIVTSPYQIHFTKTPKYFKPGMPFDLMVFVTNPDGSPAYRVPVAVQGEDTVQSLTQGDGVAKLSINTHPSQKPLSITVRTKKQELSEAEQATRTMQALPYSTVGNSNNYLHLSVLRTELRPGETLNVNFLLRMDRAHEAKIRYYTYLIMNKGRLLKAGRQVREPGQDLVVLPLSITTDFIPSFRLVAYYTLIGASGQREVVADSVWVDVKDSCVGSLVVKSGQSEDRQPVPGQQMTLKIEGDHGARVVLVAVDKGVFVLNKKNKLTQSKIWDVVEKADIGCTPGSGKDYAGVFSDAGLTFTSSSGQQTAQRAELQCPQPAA
T2 sequence (P01024 749-1663 limits assumed): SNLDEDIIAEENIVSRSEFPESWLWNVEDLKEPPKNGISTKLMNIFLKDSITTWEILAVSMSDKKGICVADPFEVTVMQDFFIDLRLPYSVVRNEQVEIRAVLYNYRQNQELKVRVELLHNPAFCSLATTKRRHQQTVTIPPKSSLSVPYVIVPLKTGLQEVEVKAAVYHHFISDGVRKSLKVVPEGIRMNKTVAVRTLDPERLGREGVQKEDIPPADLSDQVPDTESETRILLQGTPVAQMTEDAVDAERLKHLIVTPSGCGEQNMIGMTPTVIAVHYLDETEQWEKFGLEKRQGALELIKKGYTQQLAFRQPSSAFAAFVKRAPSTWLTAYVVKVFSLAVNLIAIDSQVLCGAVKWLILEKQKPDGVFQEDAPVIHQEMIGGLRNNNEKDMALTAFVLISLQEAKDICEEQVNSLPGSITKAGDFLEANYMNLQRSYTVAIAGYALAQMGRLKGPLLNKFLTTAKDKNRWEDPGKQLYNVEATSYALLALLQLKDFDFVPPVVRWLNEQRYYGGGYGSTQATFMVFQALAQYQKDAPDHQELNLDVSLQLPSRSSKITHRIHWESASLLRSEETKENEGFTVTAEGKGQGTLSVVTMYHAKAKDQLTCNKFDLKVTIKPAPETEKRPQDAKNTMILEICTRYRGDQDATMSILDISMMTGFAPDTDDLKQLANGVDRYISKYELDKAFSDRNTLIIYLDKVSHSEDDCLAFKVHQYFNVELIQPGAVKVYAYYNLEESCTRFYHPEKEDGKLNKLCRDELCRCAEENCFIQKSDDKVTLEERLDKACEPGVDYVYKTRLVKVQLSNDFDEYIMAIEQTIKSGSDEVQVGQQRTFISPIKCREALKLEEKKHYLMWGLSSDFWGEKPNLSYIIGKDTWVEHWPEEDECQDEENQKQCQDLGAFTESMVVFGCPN
Description: as §1

[7] = Viscosity at high concentrations, cone-plate-rheometer; type: physicochemical; settings: 20° C., shear-rate 1000 s^−1
Description: Viscosity measurements are performed with the samples prepared for the storage stability study. In addition to the fully formulated samples (10 mM His pH 5.5, 275 mM sucrose, 0.02% w/v Polysorbate20), viscosity of each candidate is also measured in a minimal formulation (10 mM histidine pH 5.5). This is performed to evaluate the drug substance processability (e.g., filtration, pumping, diafiltration, etc.) of the candidates up to 125% of the final drug product concentration of 150 mg/ml.
Viscosity is measured at 20° C. at a shear-rate of 1000 s^−1 using a cone-plate-rheometer. Briefly, a stepwise increase of the shear rate up to 1,000 s^−1 is done collecting 100 data points, followed by a further increase of the shear rate up to 2000 s^−1, collecting another 10 data points. Finally, a stepwise decrease of the shear rate down to starting rate is done. Good drug product handling properties for filling and syringeability have been observed for all candidates

[8] = target: T3, human C3 P314L (Homo sapiens, UniProt P01024, P314L); assay: SPR (Biacore T100) binding to C3 SNP1 P314L
T3 construct: 6×His (N); made in house; host or cells: CHO (ExpiFectamine CHO Expression Kit)
T3 sequence (P01024 23-1663 P314L): as the sequence (P01024 23-1663) above, with P292L counted along it
Description: as §1
Single nucleotide polymorphism (SNP) in C3 has been observed across the population and certain SNPs were identified in genome-wide association studies (GWAS) to correlate with an increased risk to develop AMD. […] Very rare variants, which occur in less that 2.5% of the population include K155Q, R735W, S1619W, K65Q and R161W.
(§2) Proteins are expressed with N-terminal 6×His tag and purified using a HisTrap Excel HP column (GE Healthcare), followed by a size-exclusion chromatography step (SUPERDEX®20010/300GL; GE Healthcare).

[9] = target: T4, recombinant C3 (wild-type human C3) (Homo sapiens, UniProt P01024); assay: SPR (Biacore T100) binding to recombinant C3
T4 construct: 6×His (N); made in house; host or cells: CHO (ExpiFectamine CHO Expression Kit)
T4 sequence (P01024 23-1663): as the sequence (P01024 23-1663) above
Description: as §1, §2

[10] = Storage stability at 150 mg/ml, oligomerization by SE-HPLC; type: physicochemical; settings: decrease in monomeric content versus start
Description: (§3) Clone I, clone II and clone III are tested for storage stability. Samples are concentrated to 150 mg/ml (Vivaspin20 centrifugal device, 5 kDa MWCO at 3800×g) and stored at 25° C. and 40° C. for up to 4 weeks. Samples are analyzed for oligomerization (SE-HPLC) and chemical degradation (IEX-HPLC). The starting monomeric purity as determined by SE-HPLC was 99.96% for each clone. The starting charge purity, as determined by IEX-HPLC was 98.07%, 97.16% and 96.76%, respectively for clone I, II and III.

[11] = Storage stability at 150 mg/ml, chemical degradation by IEX-HPLC; type: physicochemical
Description: as §3

[12] = Thermal stability by differential scanning fluorimetry (DSF); type: physicochemical; settings: DSF, Example 4
Description: Differential scanning fluorimetry (DSF) measures protein unfolding by monitory changes in fluorescence as a function of temperature.
The temperature of protein unfolding (Tm) is tied to the stability of antibodies, specifically to aggregation during storage and long-term stability of the therapeutic product. The thermal transitions of monoclonal antibody CH2 and CH3 domains are typically invariant for different antibodies within an isotype, with the CH2 domain unfolding prior to the CH3 domain.

B3: Clone IX: affinity maturation hit scFv, SEQ ID NO: 37 (protein)
scFv: MQLVLTQSPSASASLGASVKLTCTLSSAHKTYTIDWYQQQPEKGPRYLMQLKSEGSYTKGTGVPDRFSGSSSGAERYLTISSLQSEDSAVYYCGTDGVGGYVFGCGTKLTVLGGGGGSGGGGSGGGGSGGGGSQVQVVESGGGSVQPGRSLRLSCAVSGFSLYNYAMNWVRQAPGKCLEWIGIINVGGGTNYASWAKGRFTISTDNSKNTVYLQMNSLRAEDTASYYCARAVGYHHHALDPWGQGTSVTVSS
modifications: ScFv
Complement inhibition activity compared to parental molecule Clone IV [1]: comparable
Binding affinity to C3 and C3b compared to parental molecule Clone IV ([2]; C3 and C3b): comparable binding affinity

B4: Clone V: reformatted and humanized scFv variant of Clone IV, SEQ ID NO: 33 (protein)
scFv: MQLVLTQSPSASASLGASVKLTCTLSSAHKTYTIDWYQQQPEKGPRYLMQLKSDGSYTKGTGVPDRFSGSSSGAERYLTISSLQSEDEADYYCGTDYGGGYVFGGGTKLTVLGGGGGSGGGGSGGGGSGGGGSQVQVVESGGGSVQPGRSLRLSCAASGFSLYNYAMNWVRQAPGKGLEWIGIINTDGNTNYASWAKGRFTISTDNSKNTLYLQMNSLRAEDTASYYCPRAVGYHHHALDPWGQGTSVTVSS
modifications: ScFv
Complement inhibition activity compared to parental molecule Clone IV [1]: retains its ability to inhibit the classical and alternative complement pathways
Binding affinity to C3 and C3b compared to parental molecule Clone IV ([2]; C3 and C3b): lower binding affinity

B5: Clone XI: disulfide bond stabilized variant of Clone X, SEQ ID NO: 39 (protein)
scFv: B4 scFv with G44C, A156T, A157V, L211V, P229A, Q244C
modifications: ScFv
Monomeric purity/content loss after two weeks incubation at 37° C. [3]: 3.3%
Monomeric content after 2 weeks at 37° C. [3]: 96.5%
Monomeric content at start [3]: 99.8%

B6: Clone X: Clone VI with heavy chain framework substitutions, SEQ ID NO: 38 (protein)
scFv: B4 scFv with A156T, A157V, L211V, P229A
modifications: ScFv
Monomeric purity/content loss after two weeks incubation at 37° C. [3]: 60.4%
Monomeric content after 2 weeks at 37° C. [3]: 39.3%
Monomeric content at start [3]: 99.7%

B7: Clone III: humanized anti-C3 scFv, VH SEQ ID NO: 24, VL SEQ ID NO: 25; scFv SEQ ID NO: 30 or 31 (protein)
scFv: MQLVLTQSPSASASLGASVKLTCTLSSAHKTYTIDWYQQQPEKCPRYLMQLKSEGSYTKGSGIPDRFSGSSSGAERYLTISSLQSEDEADYYCGTEGVGGYVFGGGTKLTVLGGGGGSGGGGSGGGGSGGGGSQVQLVESGGGSVQPGRSLRLSCAASGFTFSNYAMNWVRQAPGKGLEWVAIINVGGGTNYADSVKGRFTISRDNSKNTLYLQMNSLRAEDTASYYCARAVGYHHARLDPWGCGTSVTVSS
kd cyno C3 ([4]; off-rate): 4.3e-05 s⁻¹
ka cyno C3 ([4]; on-rate): 200000 M⁻¹ s⁻¹
kd C3 SNP2 R102G ([5]; off-rate): 3.2e-05 s⁻¹
ka C3 SNP2 R102G ([5]; on-rate): 280000 M⁻¹ s⁻¹
kd C3b ([6]; off-rate): 3.1e-05 s⁻¹
ka C3b ([6]; on-rate): 250000 M⁻¹ s⁻¹
Viscosity [mPa * s] Fully formulated at 150 g/L ([7]; 10 mM His pH 5.5, 275 mM sucrose, 0.02% w/v Polysorbate20): 3.3 mPa * s
Viscosity [mPa * s] Minimal buffer at 185 g/L ([7]; 10 mM His pH 5.5): 3.2 mPa * s
kd C3 SNP1 P314L ([8]; off-rate): 3.2e-05 s⁻¹
ka C3 SNP1 P314L ([8]; on-rate): 250000 M⁻¹ s⁻¹
kd recombinant C3 ([9]; off-rate): 3.5e-05 s⁻¹
ka recombinant C3 ([9]; on-rate): 270000 M⁻¹ s⁻¹
Storage stability, SEC 4 weeks at 25° C. [D %] [10]: 0.10 D %
Storage stability, SEC 4 weeks at 40° C. [D %] [10]: 0.84 D %
Starting charge purity (IEX-HPLC) ([11]; before storage): 96.76%
Storage stability, IEX 4 weeks at 25° C. [D %] ([11]; decrease versus start): 0.3 D %
Storage stability, IEX 4 weeks at 40° C. [D %] ([11]; decrease versus start): 3.6 D %
kd C3 ([2]; off-rate): 3.6e-05 s⁻¹
ka C3 ([2]; on-rate): 240000 M⁻¹ s⁻¹

B8: Clone XII: scFv combining affinity maturation substitutions and disulfide bond stabilization, SEQ ID NO: 40 (protein)
scFv: B3 scFv with G44C, S88E, V90D, G97Y, V98G, C105G, C177G, H237A, A238R, Q244C
modifications: ScFv
Melting temperature [12]: 70.4 °C

The next lines start with results.

Binding affinity to C3 and C3b compared to parental molecule Clone IV ([2]; C3 and C3b): comparable binding affinity
B1: Clone VII: affinity maturation hit scFv, SEQ ID NO: 35 (protein)
scFv: B3 scFv with D96E
modifications: ScFv
Complement inhibition activity compared to parental molecule Clone IV [1]: comparable

Increase in the binding affinity to C3 and C3b compared to Clone IV ([2]; C3 and C3b): approximately 10 fold
B2: Clone VIII: affinity maturation hit scFv, SEQ ID NO: 36 (protein)
scFv: B3 scFv with D96E, H237S, A238R
modifications: ScFv
Complement inhibition activity compared to parental molecule Clone IV [1]: superior performance

Kd ([6]; Table 19, SPR, read-out: Affinity human C3b): > 34 nM
B9: Compound A3 Fab: NGM621 surrogate in a Fab format (antibody, V domains shown)
VH: QVQLVQSGAEVKKPGASVKVSCKASGYTFTDFYMDWVRQAPGQRLEWMGYIYPHNGGTTYNQQFTGRVTITVDKSASTAYMELSSLRSEDTAVYYCARRGGFDFDYWGQGTLVTVSS
VL: DIQMTQSPSSLSASVGDRVTITCKASENVDTYVSWYQQKPGKAPKLLIYGASNRYTGVPSRFSGSGSGTDFTFTISSLQPEDIATYHCGQSHSYPLTFGQGTKLEIKR

From patent publication US12344663B2, “Anti-C3 antibodies and antigen-binding fragments thereof and their uses for treating eye or ocular diseases” (CDR-Life AG, priority 2021, dated 2025)
